Results from patent US20130011909A1, “METHODS AND COMPOSITION TO ENHANCE PRODUCTION OF FULLY FUNCTIONAL P-GLYCOPROTEIN IN PICHIA PASTORIS” (TEXAS TECH UNIVERSITY SYSTEM, priority 2011, published 2013).

Experiments:
[1] = molecular target: gene-optimized P-glycoprotein (mouse opti-MDR3 gene product) with C-terminal His6-tag (mouse) (UniProt P21447); assay: cell-based or functional assay
[2] = molecular target: wild-type P-glycoprotein (mouse MDR3 gene product) with C-terminal His6-tag (mouse) (UniProt P21447); assay: cell-based or functional assay
WT-Pgp = molecular target: T1, WT-Pgp (Mus musculus, UniProt P21447, N83Q/N87Q/N90Q); assay: ATPase assay of purified, lipid-activated Pgp (coupled ATP-regenerating assay); type: biochemical; conditions: 150 μM verapamil, 1% E. coli lipids, 37° C., n > 30
T1 construct: Arrows indicate the position of the full-length proteins (Pgp); made in house; host or cells: Pichia pastoris KM71H
Description: (§1) Purified Pgp in 0.1% DDM was mixed with 10 mM DTT on ice for 5 min, then activated with 1% E. coli polar lipids for 15 minutes at room temperature followed by 30 s bath sonication as described. ATPase activity was measured at 37° C. in a coupled assay utilizing an ATP-regenerating system. For each well of a 96-well plate, 10 μl (5 μg) of activated wild type (WT) Pgp or Opti-Pgp was added to 200 μl of assay medium containing 10 mM ATP, 12 mM MgSO4, 3 mM phosphoenolpyruvate, 0.3 mM NADH, 0.5 mg/ml of lactate dehydrogenase, 0.5 mg/ml of pyruvate kinase, 0.1 mM EGTA and 40 mM Tris-HCl, pH 7.4. Verapamil was added from stock solution in water; cyclosporine A was added from concentrated stock in DMSO such that the final DMSO concentration was 2%; control samples contained 2% DMSO. […] ATPase activity was calculated as described previously and plotted with SigmaPlot 10 (Systat Software, Inc.).

[3] = Differential scanning calorimetry, thermal unfolding; type: physicochemical
Description: Calorimetry was routinely carried out in 20 mM HEPES, pH 7.6, 50 mM NaCl, 10% glycerol, 0.1% DDM and 5.5 mM DTT in 0.13 mL cells at a heating rate of 2 K/minutes with the VP-Capillary DSC System (MicroCal Inc., GE Healthcare). An external pressure of 2.0 atm was maintained to prevent possible degassing of the solutions on heating. Thermal unfolding was irreversible, as determined by sample cooling and reheating. Heat capacity curves were corrected for instrumental baseline obtained by buffer scans. Separated DSC scans were conducted for buffer containing 1% lipids and no transition was detected in the temperature range of thermal unfolding for the proteins in presence of lipids. DSC data were analyzed with the MicroCal Origin software to obtain the unfolding temperature (Tm) and the total unfolding enthalpy (ΔHcal).

[4] = test system: S. cerevisiae strain JPY201; assay: Mating assay (a-factor export, diploid formation); type: cell-based; conditions: sterile ste6Δ strain JPY201, tester DC17
Description: (§2) FK506 resistance and mating assays were as previously described with the following modifications. To measure FK506-resistant growth, overnight cultures were grown in uracil-deficient medium, diluted to an (OD600 of 0.05, seeded into sterile 96 well plates in triplicate and grown in YPD medium at 30° C. in the absence or presence of FK506, valinomycin [12, 33], or doxorubicin. OD600 was measured at 2 hour intervals for 30 hours in a microplate reader (Benchmark Plus, BioRad) after vigorous mixing. Drugs were dissolved in dimethylsulfoxide and diluted into the plate medium such that the final concentration of solvent was ≦1%. For mating assays, mass populations were diluted to OD600 of 0.6, and 0.75 ml were spotted with 0.25 ml of α-type tester strain DC17 (OD600 of 1.2) onto a 22 mm 0.45 μm HA filter (Millipore, cat no SAIJ791H5), placed on a YPD plate and incubated for 4 hours, then plated in duplicate on minimal and uracil-deficient medium as described. Mating frequency was calculated as the ratio of transformed cells forming diploid colonies on selective medium to the total number of cells introduced in the assay. Statistical analysis of the functional assays was done with the SigmaPlot 11 software using One Way ANOV A with the pairwise multiple comparison Tukey test.

Opti-Pgp = molecular target: T2, Opti-Pgp (Mus musculus, UniProt P21447, N83Q/N87Q/N90Q); assay: ATPase assay of purified, lipid-activated Pgp (coupled ATP-regenerating assay); type: biochemical
T2 construct: made in house; host or cells: Pichia pastoris KM71H
Description: as §1

[5] = test system: S. cerevisiae strain JPY201; assay: Drug-resistant growth of Pgp transformants (FK506, valinomycin, doxorubicin); type: cell-based
Description: as §2

T2 sequence (P21447 whole entry N83Q/N87Q/N90Q): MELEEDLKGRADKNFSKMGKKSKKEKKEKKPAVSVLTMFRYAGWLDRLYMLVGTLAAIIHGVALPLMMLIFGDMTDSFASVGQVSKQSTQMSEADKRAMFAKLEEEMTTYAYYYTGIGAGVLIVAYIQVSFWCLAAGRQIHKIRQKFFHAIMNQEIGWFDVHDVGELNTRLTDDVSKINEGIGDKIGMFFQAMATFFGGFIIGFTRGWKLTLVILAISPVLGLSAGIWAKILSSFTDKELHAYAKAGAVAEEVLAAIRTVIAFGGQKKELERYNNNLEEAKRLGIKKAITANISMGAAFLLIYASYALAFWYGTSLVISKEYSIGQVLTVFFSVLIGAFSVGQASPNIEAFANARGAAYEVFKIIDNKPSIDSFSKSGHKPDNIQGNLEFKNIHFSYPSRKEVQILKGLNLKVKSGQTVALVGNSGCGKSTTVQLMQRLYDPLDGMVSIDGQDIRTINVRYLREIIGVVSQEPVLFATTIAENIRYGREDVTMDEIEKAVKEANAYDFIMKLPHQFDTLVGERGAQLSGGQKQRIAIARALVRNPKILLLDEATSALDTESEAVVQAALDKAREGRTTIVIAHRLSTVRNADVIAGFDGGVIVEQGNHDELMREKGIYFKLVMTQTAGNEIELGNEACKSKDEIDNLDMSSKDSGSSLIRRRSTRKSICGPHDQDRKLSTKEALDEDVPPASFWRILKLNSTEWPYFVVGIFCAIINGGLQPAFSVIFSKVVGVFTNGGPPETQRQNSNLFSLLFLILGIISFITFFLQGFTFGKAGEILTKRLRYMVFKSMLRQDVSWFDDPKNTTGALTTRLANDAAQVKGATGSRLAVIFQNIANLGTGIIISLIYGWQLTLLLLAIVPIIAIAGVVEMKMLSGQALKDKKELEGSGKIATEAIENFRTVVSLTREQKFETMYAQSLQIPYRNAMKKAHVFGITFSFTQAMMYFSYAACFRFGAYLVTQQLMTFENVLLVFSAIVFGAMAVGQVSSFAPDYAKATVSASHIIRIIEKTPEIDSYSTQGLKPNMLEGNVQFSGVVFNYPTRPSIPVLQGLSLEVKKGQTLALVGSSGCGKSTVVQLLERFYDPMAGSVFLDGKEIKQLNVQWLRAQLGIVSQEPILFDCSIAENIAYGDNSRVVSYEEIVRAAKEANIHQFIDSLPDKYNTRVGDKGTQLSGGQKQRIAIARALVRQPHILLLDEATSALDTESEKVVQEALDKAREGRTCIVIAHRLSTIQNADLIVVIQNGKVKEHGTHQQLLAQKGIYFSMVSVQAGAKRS
T1 sequence (P21447 whole entry N83Q/N87Q/N90Q): as above

Substance: cyclosporine A (peptide)
- Half-maximal inhibition by cyclosporine A (µM) of verapamil-stimulated ATPase activity [1]: 1.1 µM
- Half-maximal inhibition by cyclosporine A (µM) of verapamil-stimulated ATPase activity [2]: 0.98 µM

Substance: WT-Pgp: wild-type mouse MDR3 P-glycoprotein expressed from the native gene, comparison protein
- Maximal ATPase activity (WT-Pgp): 1.8 ± 0.24 µmol/min/mg
- Unfolding temperature T1 ([3]; 1% lipid): 50.4 ± 0.9 °C
- Unfolding temperature T2 ([3]; 1% lipid): 57.8 ± 0.1 °C
- ΔHcal ([3]; 1% lipid): 518 ± 4.2 kcal/mol
- Unfolding temperature T1 ([3]; no added lipids, 0.1% DDM): 43.0 ± 1.6 °C
- ΔHcal ([3]; no added lipids, 0.1% DDM): 264 ± 87 kcal/mol

Substance: Opti-Pgp: P-glycoprotein (mouse MDR3) expressed from codon-optimized opti-MDR3 gene, primary sequence identical to wild-type, C-terminal His6 tag
- Mating frequency relative to WT-Pgp controls [4]: about 1.5 fold
- verapamil-stimulated ATPase activity (Opti-Pgp; 0.13% lipid): 40%
- verapamil-stimulated ATPase activity (Opti-Pgp; 0.52% lipid): 80%
- ATP hydrolysis rate enhancement over wild-type Pgp (Opti-Pgp; Opti-Pgp versus WT-Pgp): 1.2 fold
- verapamil-stimulated ATPase activity (Opti-Pgp; absence of lipids): 11%
- Maximal ATPase activity (Opti-Pgp; purified Opti-Pgp, 150 μM verapamil, 1% E. coli lipids, 37° C., n > 30): 2.1 ± 0.28 µmol/min/mg
- Maximum turnover number (Opti-Pgp; purified Opti-Pgp, as printed in summary): 2.1 ± 0.28 µmol/min/mg
- Tm (intermediate) ([3]; 0.13% lipid): 48 °C
- Unfolding temperature T1 ([3]; 1% lipid): 49.3 ± 1.0 °C
- Unfolding temperature T2 ([3]; 1% lipid): 58.7 ± 0.5 °C
- ΔHcal ([3]; 1% lipid): 567 ± 33 kcal/mol
- Unfolding temperature T1 ([3]; no added lipids, 0.1% DDM): 42.7 ± 1.7 °C
- ΔHcal ([3]; no added lipids, 0.1% DDM): 264 ± 67 kcal/mol
- Growth resistance compared with WT-Pgp transformants ([5]; FK506 25 μg/ml): no difference
- Growth resistance compared with WT-Pgp transformants ([5]; FK506 50 or 75 μg/ml): grew significantly faster
- Growth resistance compared with WT-Pgp transformants ([5]; doxorubicin 45 μM): grew significantly faster
- Growth resistance compared with WT-Pgp transformants ([5]; doxorubicin 15 and 30 μM): no significant difference
- Time after inoculation to enter log-phase growth ([5]; in the presence of FK506): approximately 22 hours
- Time to reach stationary phase ([5]; in the presence of FK506): approximately 28 hours
- Growth compared with WT-Pgp transformants ([5]; valinomycin 80 μg/ml, data not shown): as good as or better than
